The subject of one data set is HepG2 cells. Kind of data set: Assay to test for cell permeability of peptides. The class given is cell-based. The conditions noted are these: 3 h. The procedure:
Figure 1 Cell-permeability of X-protein peptides. (a) X-protein peptides aa 1–20 and 16–35 are cell-permeable. Four FITC-labelled peptides encompassing aa 1–20, 16–35, 21–40 and 34–53 from the N-terminal region of the X-protein were incubated at 10 μM with HepG2 cells and their uptake by the cells recorded by confocal microscopy. Cell nuclei were stained blue with DAPI. (b) The sequence of the first 35 N-terminal residues of the HBV X-protein are shown with the sequence of Xentry (LCLRPVG; residues 16–22) highlighted in red. Short FITC-labelled peptides (10 μM) aa 16–26, 16–24 and 16–22 (Xentry) derived from peptide aa 16–35 also permeate HepG2 cells (upper panel). […] Cell nuclei were stained blue with DAPI. […] Cell nuclei were stained blue with DAPI. Scale bar, 50 μm.
HepG2 cells (ATCC, Manassas, VA) were seeded into 8-well chamber slides at 1 × 10^5 cells per well in MEM media (Gibco, Life Technologies New Zealand Ltd) containing 10% FCS and PSG. […] L-isomeric peptides were diluted in 500 μl of MEM media without FCS, whereas D-isomeric peptides were diluted in the same media containing FCS, and each added to cells at a final concentration of 10 μM, or as indicated. The cells were incubated for 3 h at 37°C in a 5% CO2 atmosphere, washed with PBS, fixed with 4% formaldehyde for 30 min, and washed thrice with PBS. A drop of Prolong Gold anti-fade reagent with DAPI (Invitrogen, Life Technologies New Zealand Ltd) was added, and the cells mounted and examined with a Nikon E600 fluorescence microscope or a Leica TCS-SP2 confocal microscope.
(§1) Supplementary Figure 3. The D-isomeric form of Xentry aa 16-22 is cell permeable, and is stable in serum for at least 4 h.
(§2) (a) FITC-labelled D-isomeric Xentry was incubated with HepG2 cells at concentrations of […] for 3 h.
(§3) Uptake was recorded by fluorescence microscopy. Cell nuclei were stained with DAPI. (b) FITC-labelled L-isomeric and D-isomeric forms of Xentry were incubated in serum for 0, 1, and 4 h before incubation with HepG2 cells. Cell nuclei were stained with DAPI. Scale bar, 50 μm. […]

The target of a further data set is T1, syndecan-4 (Homo sapiens, UniProt P31431).
T1 construct: endogenous in cells; host or cells: HepG2 (ATCC)
T1 sequence (P31431 19-198): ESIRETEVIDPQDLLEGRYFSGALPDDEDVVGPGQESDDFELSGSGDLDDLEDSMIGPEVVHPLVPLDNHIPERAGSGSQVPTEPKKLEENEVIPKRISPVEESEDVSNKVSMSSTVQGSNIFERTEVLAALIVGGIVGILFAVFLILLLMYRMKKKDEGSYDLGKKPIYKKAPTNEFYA
As to the kind of experiment: Anti-syndecan 4 antibody blockade of Xentry uptake by HepG2 cells. The class given is cell-based. Particulars: FITC-lclrpvg 10 μM, 3 h. The procedure:
Cell nuclei were stained blue with DAPI. […] Scale bar, 50 μm.
The media was replaced with 500 μl of MEM media containing 10% FCS and either 1 μg/ml of a goat anti-human syndecan-4 antibody (R&D Systems, Minneapolis, MN), or 1 μg/ml of the control goat anti-human TNF-related apoptosis-inducing ligand (TRAIL) antibody (Santa Cruz Biotechnology Inc., Santa Cruz, CA). The cells were then incubated at 37°C and 5% CO2 for 30 min. FITC-labelled Xentry (FITC-lclrpvg) was added at a final concentration of 10 μM and the cells incubated for 3 h at 37°C in a 5% CO2 atmosphere. The cells were washed thrice with PBS, fixed with 4% formaldehyde for 15 min, washed with PBS, and DAPI added for visualization of cell nuclei. They were examined using a Nikon E600 fluorescence microscope, and photographed.

Data set [1] is classed as in vitro ADME. The conditions noted are these: FITC-labelled peptide incubated in serum 0, 1 and 4 h, then incubated with HepG2 cells; read-out cell uptake by fluorescence microscopy. The procedure: as §1, §2, §3
Data set [2] can be described thus: Biodistribution of a Xentry-β-galactosidase conjugate in mice (X-gal staining). The class given is in vivo, Balb/c mice. The procedure: One milligram of recombinant β-galactosidase (Medicago AB, Uppsala, Sweden) was cross-linked to 0.2 mg of a FITC-labelled Xentry peptide fused to a polyglutamine stretch (FITC-lclrpvggrrQQQQQQrr; Peptide 2.0 Inc., Chantilly, VA) with 4.8 μg of transglutaminase in 40 μl of transglutaminase buffer for 1 h at 37°C. […] Control mice (one mouse per time point) were intravenously injected with 1 mg of unconjugated β-galactosidase. The heart, lungs, liver, spleen, pancreas, kidneys, stomach, small intestine, colon, muscle and brain of each mouse were collected, and frozen at −80°C. Frozen organ sections were fixed in 0.25% glutaraldehyde for 15 min, washed thrice with PBS and stained with 1 mg/ml of X-gal (Sigma, MO) for 3 h at 37°C. The sections were washed thrice with PBS, examined by light microscopy and photographed.

Data set [3] has as its system WM-266-4 melanoma cells. Kind of data set: Xentry-KALA fusion peptide delivery of anti-B-raf siRNA, apoptosis (annexin-V fluos). It is filed as cell-based. The conditions noted are these: 10 μM Xentry-KALA fusion peptide with 30 nM Tex615-labelled siRNA against B-raf, 72 h. The procedure: Figure 3 Xentry-mediated delivery of antibody and siRNA cargoes into cells. (a) Uptake of Xentry-conjugated and unconjugated FITC-labelled rabbit IgG by HepG2 cells. Cell nuclei were stained blue with DAPI. (b) Representative cell showing staining of tubulin by a Cy3-labelled anti-β-tubulin antibody delivered to HepG2 cells by Xentry. HepG2 cells were incubated with the Xentry- anti-β-tubulin antibody conjugate for 1 h, washed, then incubated and photographed 24 h later. For comparison, a representative fixed and permeabilized cell is shown which has been stained by the free anti-β-tubulin antibody. […] (c) The abilities of a Xentry-conjugated and unconjugated anti-B-raf antibody to induce the apoptosis of WM-266-4 melanoma cells, as evidenced by staining of cells with annexin-V fluos (green). […] For comparison, the anti-B-raf siRNA was transfected into cells using the PolyMag agent. The siRNA was omitted from controls. Scale bar, 50 μm.
A 600 μl solution was prepared containing 30 nM of a Tex615-labelled siRNA against B-raf (sense 5′-XAGAAUUGGAUCUGGAUCAUTTY-3′; antisense 5′-[…]-3′; X = C12 amino, Y = Tex615) (Integrated DNA Technologies, Iowa) and 10 μM of a Xentry-KALA fusion peptide (biotin-[…]; Peptide 2.0 Inc., Chantilly, VA). […] Cells were stained with annexin-V Fluos to detect apoptotic cells by fluorescence microscopy, and photographed. […]

Data set [4] concerns WM-266-4 melanoma cells. Kind of data set: Apoptosis of melanoma cells by Xentry-conjugated anti-B-raf antibody (annexin-V fluos). It is filed as cell-based. The conditions noted are these: annexin-V fluos staining.
Description: HepG2 cells were seeded at 1 × 10^5 cells per well into 8-well chamber slides, and cultured overnight at 37°C in an atmosphere of 5% CO2. They were washed thrice with serum-free MEM media and resuspended in 500 μl of serum-free MEM. A 30 μl solution containing conjugation buffer, 0.85 μg of the Xentry peptide biotin-[sequence], 9 μg of a FITC-labelled rabbit IgG (Sigma, MO) or 1 μg of a rabbit polyclonal anti-B-raf antibody (Sigma, MO), and 4.8 μg of transglutaminase was incubated for 1 h at 37°C. The resulting conjugates were added to the cells, which were incubated for 3 h at 37°C and washed thrice with PBS. […] Cells incubated with the Xentry-anti-B-raf antibody conjugate were stained with annexin-V Fluos (Roche Diagnostics NZ Ltd., Auckland) to detect cell apoptosis. The cells were examined using a Nikon E600 fluorescence microscope, and photographed.
Another data set deals with live HepG2 cells. Particulars: live unfixed cells, 3 h 37°C, β-galactosidase substrate C12FDG 10 min, fluorescence microscopy.

Non-standard residues stand in square brackets, D forms with d. Residues, ends and D or L forms follow the SMILES beside them. No end group written: not given here. *: point of attachment. FITC = O=C1OC2(c3ccc(O)cc3Oc3cc(O)ccc32)c2ccc(NC(=S)*)cc21; Biotin = O=C1N[C@H]2[C@H](CS[C@H]2CCCCC(=O)*)N1

Description for live HepG2 cells: (a) Visualization of the internalization of an unlabelled Xentry-β-galactosidase conjugate, and unconjugated β-galactosidase, after a 10 min incubation with live cells preloaded with the green fluorescent substrate C12FDG.
HepG2 cells were seeded at 1 × 10^5 cells per well into 8-well chamber slides, and cultured overnight at 37°C in a 5% CO2 atmosphere. They were washed thrice with serum-free MEM media, and 500 μl of serum-free MEM added to the wells. A Xentry peptide (biotin-[sequence]; Peptide 2.0 Inc., Chantilly, VA) where LCLRP was fused to a polyglutamine stretch was conjugated to recombinant β-galactosidase. A 30 μl solution containing conjugation buffer (5 mM CaCl2, 1 mM DTT, 50 mM Tris-HCl), 0.84 μg of Xentry peptide, 16.5 μg of β-galactosidase (5 U; Sigma, MO), and 4.8 μg of transglutaminase (Ajinomoto, Itasca, IL) was incubated for 1 h at 37°C. The resulting conjugate was added to the cells, which were incubated for 3 h at 37°C. The cells were washed thrice with PBS, and the β-galactosidase substrate 5-dodecanoylaminofluorescein di-β-D-galactopyranoside (Imagene C12FDG; Invitrogen Life Technologies New Zealand Ltd) added, followed by incubation for 10 min at 37°C. The cells were washed, and examined using a Nikon E600 fluorescence microscope and photographed.

Regarding `CC(C)C[C@@H](NC(=O)[C@@H](CS)NC(=O)[C@@H](CC(C)C)NC(=S)Nc1ccc2c(c1)C(=O)OC21c2ccc(O)cc2Oc2cc(O)ccc21)C(=O)N[C@H](CCCNC(=N)N)C(=O)N1CCC[C@@H]1C(=O)N[C@@H](C(=O)NCC(=O)O)C(C)C` [D-isomeric form] ({FITC}-[dL][dC][dL][dR][dP][dV]G-OH), the “Uptake into HepG2 cells at increasing concentrations” value in the data set on HepG2 cells (FITC-labelled D-isomeric Xentry 10, 20, 50 and 100 µM) is listed as “increased uptake”. Besides, the “Cell permeability (HepG2 cells)” value with HepG2 cells (FITC-labelled D-isomeric Xentry, media containing FCS, fluorescence microscopy) is “cell-permeable”. For the same compound, on syndecan-4 (1 μg/ml control antibody against TRAIL), the “Uptake by HepG2 cells after control anti-TRAIL antibody” value is given as “no effect”. For the same compound, the “Uptake by HepG2 cells after anti-syndecan-4 antibody” value at syndecan-4 (1 μg/ml goat anti-human syndecan-4 antibody 30 min pre-incubation, MEM 10% FCS) was “blocked”. For the same compound, the “Time stable in serum” value in data set [1] was “at least 4 h”.
Take “FITC-lclrpvggrrQQQQQQrr [Xentry-β-galactosidase conjugate, recombinant β-galactosidase cross-linked to FITC-labelled D-form Xentry polyglutamine peptide (injected into mice)]”: the “Retention in stained organs at 1 h, except for the brain” value in data set [2] (1 mg i.v., 1 h, intensity of staining diminished) is “retained the bioactive conjugate”. In data set [2] (1 mg i.v., 6 h), the “β-galactosidase activity in organs at 6 h” value was “only the spleen and small intestine retained some β-galactosidase activity”. For the same compound, in data set [2] (1 mg i.v., 24 h, data not shown), the “β-galactosidase activity in organs by 24 h” value is given as “completely lost”. Besides, in data set [2] (1 mg i.v., X-gal stained sections), the Distribution within organs entry was “concentrated in the enterocytes of the small intestine, epithelium of the stomach, and in the marginal zone or marginal sinus of the spleen”. Also, the “Staining of pancreas, colon and muscle at 15 min” value in data set [2] (1 mg i.v., data not shown) is “poorly stained”. In addition, the “X-gal staining of organs at 15 min” value in data set [2] (1 mg i.v., lungs, liver, spleen, kidneys, stomach, small intestine, colon, muscle, brain listed as stained) was “most of the organs stained blue”.
With “Biotin-LCLRPVGGGWEAKLAKALAKALAKHLAKALAKALKACEA (cysteine pairing not given here) [Xentry-KALA fusion peptide, tested as complex with anti-B-raf siRNA]”, the “Apoptosis of WM-266-4 melanoma cells” value in the data set on WM-266-4 melanoma cells [3] was “causing cell apoptosis”.
In the case of “Biotin-LCLRPVGGGRRRQQQQQQRRR [Xentry-anti-B-raf antibody conjugate, rabbit polyclonal anti-B-raf antibody conjugated to Xentry polyglutamine peptide]”, the “Apoptosis of WM-266-4 melanoma cells” value in the data set with WM-266-4 melanoma cells [4] was “undergo apoptosis”.
For “unconjugated β-galactosidase: recombinant β-galactosidase without Xentry, control [reference compound]”, in data set [2] (1 mg unconjugated β-galactosidase i.v., one mouse per time point, data not shown), the “X-gal staining of organs” value is reported as “did not stain”. The “Uptake by live HepG2 cells” value in the data set on live HepG2 cells is “not”.
